B1: Azoarcus group I ribozyme (parent)
chain: GUGCCUUGCGCCGGGAAACCACGCAAGGGAUGGUGUCAAAUUCGGCGAAACCUAAGCGCCCGCCCGGGCGUAUGGCAACGCCGAGCCAAGCUUCGGCGCCUGCGCCGAUGAAGGUGUAGAGACUAGACGGCACCCACCUAAGGCAAACGCUAUGGUGAAGGCAUAGUCCAGGGAGUGGCGAAAGUCACACAAACCGG

This series covers variants of B1. The series can be described thus: reverse-splicing fitness (ratio to wild type); higher = more active; in vitro selection; Mg2+ level not given. In outline:
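An in vitro group I ribozyme library with randomized positions was T7-transcribed and gel-purified. In triplicate, 10 pmol RNA in EPPS pH 7.5 was reacted with 50 pmoles of a 30-nt RNA substrate for 1 h at 37 °C across several added MgCl2 levels (1–48 mM), then stopped with EDTA. Products were reverse transcribed from a substrate-complementary primer, PCR-amplified and sequenced (HiSeq 4000). Fitness is a variant's read proportion after selection over that before, normalised to wild type.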
For GUGCCUUGCGCCGGGAAACCACGCAAGGGAUGGUGUCAAAUUCGGCGAAACCUAAGCGCCCGCCCGGGCGUAUGGCAACGCUGAGCCAAGCUUCGGCGCCUGCGCCGAUGGAGGUGUAGGGACUAGACGGCACCCACCUAAGGCAAACGGUAUGGUGAAGGCAUAGUCGAGGGAGCGGCGAAAGUCACACAAACCGG, the reverse-splicing fitness worked out at 0.00458.

In the case of GUGCCUUGCGCCGGGAAACCACGCAAGGGAUGGUGUCAAAUUCGGCGAAACCUAAGCGCCCGCCCGGGCGUAUGGCAACGCUGAGCCAAGCUUCGGCGCCUGCGCCGAUGGAGGUGUAGGGACUAGACGGCACCCACCUAAGGCAAACGGUAUGGUGAAGGCAUAGUCGAGGGAGAGGCGAAAGUCACACAAACCGG, the reverse-splicing fitness was 0.00604.

For the variant GUGCCUUGCGCCGGGAAACCACGCAAGGGAUGGUGUCAAAUUCGGCGAAACCUAAGCGCCCGCCCGGGCGUAUGGCAACGCUGAGCCAAGCUUCGGCGCCUGCGCCGAUGGAGGUGUAGGGACUAGACGGCACCCACCUAAGGCAAACGUUAUGGUGAAGGCAUAGUCCAGGGAGUGGCGAAAGUCACACAAACCGG, the reverse-splicing fitness was determined as 0.0125.

In the case of GUGCCUUGCGCCGGGAAACCACGCAAGGGAUGGUGUCAAAUUCGGCGAAACCUAAGCGCCCGCCCGGGCGUAUGGCAACGCUGAGCCAAGCUUCGGCGCCUGCGCCGAUGGAGGUGUAGGGACUAGACGGCACCCACCUAAGGCAAACGGUAUGGUGAAGGCAUAGUCCAGGGAGUGGCGAAAGUCACACAAACCGG, the reverse-splicing fitness worked out at 0.00676.

Regarding GUGCCUUGCGCCGGGAAACCACGCAAGGGAUGGUGUCAAAUUCGGCGAAACCUAAGCGCCCGCCCGGGCGUAUGGCAACGCUGAGCCAAGCUUCGGCGCCUGCGCCGAUGGAGGUGUAGGGACUAGACGGCACCCACCUAAGGCAAACGAUAUGGUGAAGGCAUAGUCCAGGGAGCGGCGAAAGUCACACAAACCGG, the reverse-splicing fitness was 0.016.

GUGCCUUGCGCCGGGAAACCACGCAAGGGAUGGUGUCAAAUUCGGCGAAACCUAAGCGCCCGCCCGGGCGUAUGGCAACGCUGAGCCAAGCUUCGGCGCCUGCGCCGAUGGAGGUGUAGGGACUAGACGGCACCCACCUAAGGCAAACGAUAUGGUGAAGGCAUAGUCCAGGGAGAGGCGAAAGUCACACAAACCGG: the reverse-splicing fitness is 0.00996.

As for GUGCCUUGCGCCGGGAAACCACGCAAGGGAUGGUGUCAAAUUCGGCGAAACCUAAGCGCCCGCCCGGGCGUAUGGCAACGCUGAGCCAAGCUUCGGCGCCUGCGCCGAUGGAGGUGUAGGGACUAGACGGCACCCACCUAAGGCAAACGAUAUGGUGAAGGCAUAGUCCAGGGAGGGGCGAAAGUCACACAAACCGG, the reverse-splicing fitness came to 0.00658.

On to GUGCCUUGCGCCGGGAAACCACGCAAGGGAUGGUGUCAAAUUCGGCGAAACCUAAGCGCCCGCCCGGGCGUAUGGCAACGCUGAGCCAAGCUUCGGCGCCUGCGCCGAUGGAGGUGUAGGGACUAGACGGCACCCACCUAAGGCAAACGGUAUGGUGAAGGCAUAGUCAAGGGAGAGGCGAAAGUCACACAAACCGG, for which the reverse-splicing fitness came out at 0.00933.

On to GUGCCUUGCGCCGGGAAACCACGCAAGGGAUGGUGUCAAAUUCGGCGAAACCUAAGCGCCCGCCCGGGCGUAUGGCAACGCUGAGCCAAGCUUCGGCGCCUGCGCCGAUGGAGGUGUAGGGACUAGACGGCACCCACCUAAGGCAAACGGUAUGGUGAAGGCAUAGUCAAGGGAGGGGCGAAAGUCACACAAACCGG, for which the reverse-splicing fitness is 0.00628.

As for GUGCCUUGCGCCGGGAAACCACGCAAGGGAUGGUGUCAAAUUCGGCGAAACCUAAGCGCCCGCCCGGGCGUAUGGCAACGCUGAGCCAAGCUUCGGCGCCUGCGCCGAUGGAGGUGUAGGGACUAGACGGCACCCACCUAAGGCAAACGGUAUGGUGAAGGCAUAGUCAAGGGAGCGGCGAAAGUCACACAAACCGG, the reverse-splicing fitness worked out at 0.0101.

For GUGCCUUGCGCCGGGAAACCACGCAAGGGAUGGUGUCAAAUUCGGCGAAACCUAAGCGCCCGCCCGGGCGUAUGGCAACGCUGAGCCAAGCUUCGGCGCCUGCGCCGAUGGAGGUGUAGGGACUAGACGGCACCCACCUAAGGCAAACGAUAUGGUGAAGGCAUAGUCUAGGGAGUGGCGAAAGUCACACAAACCGG, the reverse-splicing fitness amounted to 0.00735.

As to GUGCCUUGCGCCGGGAAACCACGCAAGGGAUGGUGUCAAAUUCGGCGAAACCUAAGCGCCCGCCCGGGCGUAUGGCAACGCUGAGCCAAGCUUCGGCGCCUGCGCCGAUGGAGGUGUAGGGACUAGACGGCACCCACCUAAGGCAAACGGUAUGGUGAAGGCAUAGUCUAGGGAGCGGCGAAAGUCACACAAACCGG, the reverse-splicing fitness worked out at 0.0124.

For GUGCCUUGCGCCGGGAAACCACGCAAGGGAUGGUGUCAAAUUCGGCGAAACCUAAGCGCCCGCCCGGGCGUAUGGCAACGCUGAGCCAAGCUUCGGCGCCUGCGCCGAUGGAGGUGUAGGGACUAGACGGCACCCACCUAAGGCAAACGGUAUGGUGAAGGCAUAGUCUAGGGAGAGGCGAAAGUCACACAAACCGG, the reverse-splicing fitness was 0.0121.

As to GUGCCUUGCGCCGGGAAACCACGCAAGGGAUGGUGUCAAAUUCGGCGAAACCUAAGCGCCCGCCCGGGCGUAUGGCAACGCUGAGCCAAGCUUCGGCGCCUGCGCCGAUGGAGGUGUAGGGACUAGACGGCACCCACCUAAGGCAAACGGUAUGGUGAAGGCAUAGUCUAGGGAGGGGCGAAAGUCACACAAACCGG, the reverse-splicing fitness is 0.00601.

With GUGCCUUGCGCCGGGAAACCACGCAAGGGAUGGUGUCAAAUUCGGCGAAACCUAAGCGCCCGCCCGGGCGUAUGGCAACGCUGAGCCAAGCUUCGGCGCCUGCGCCGAUGGAGGUGUAGGGACUAGACGGCACCCACCUAAGGCAAACGUUAUGGUGAAGGCAUAGUCGAGGGAGAGGCGAAAGUCACACAAACCGG, the reverse-splicing fitness is 0.0144.

The record behind these values is the RNAGym collection of RNA variant scans (doi:10.1093/molbev/msab373).
